# Values quoted from earlier work in publication PMC7080216.
# Experiments:
# [1] = target: matriptase (Homo sapiens) (UniProt Q9Y5Y6)
# [2] = target: cathepsin G (Homo sapiens) (UniProt P08311)
# Sequence of UniProt P08311 (P08311 21-243): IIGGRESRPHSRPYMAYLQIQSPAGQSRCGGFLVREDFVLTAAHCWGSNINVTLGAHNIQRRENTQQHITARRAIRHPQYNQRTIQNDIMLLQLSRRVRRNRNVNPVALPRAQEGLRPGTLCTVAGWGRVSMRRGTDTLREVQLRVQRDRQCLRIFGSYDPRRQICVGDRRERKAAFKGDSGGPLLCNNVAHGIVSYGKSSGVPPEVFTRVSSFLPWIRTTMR
# Sequence of UniProt Q9Y5Y6 (Q9Y5Y6 whole entry): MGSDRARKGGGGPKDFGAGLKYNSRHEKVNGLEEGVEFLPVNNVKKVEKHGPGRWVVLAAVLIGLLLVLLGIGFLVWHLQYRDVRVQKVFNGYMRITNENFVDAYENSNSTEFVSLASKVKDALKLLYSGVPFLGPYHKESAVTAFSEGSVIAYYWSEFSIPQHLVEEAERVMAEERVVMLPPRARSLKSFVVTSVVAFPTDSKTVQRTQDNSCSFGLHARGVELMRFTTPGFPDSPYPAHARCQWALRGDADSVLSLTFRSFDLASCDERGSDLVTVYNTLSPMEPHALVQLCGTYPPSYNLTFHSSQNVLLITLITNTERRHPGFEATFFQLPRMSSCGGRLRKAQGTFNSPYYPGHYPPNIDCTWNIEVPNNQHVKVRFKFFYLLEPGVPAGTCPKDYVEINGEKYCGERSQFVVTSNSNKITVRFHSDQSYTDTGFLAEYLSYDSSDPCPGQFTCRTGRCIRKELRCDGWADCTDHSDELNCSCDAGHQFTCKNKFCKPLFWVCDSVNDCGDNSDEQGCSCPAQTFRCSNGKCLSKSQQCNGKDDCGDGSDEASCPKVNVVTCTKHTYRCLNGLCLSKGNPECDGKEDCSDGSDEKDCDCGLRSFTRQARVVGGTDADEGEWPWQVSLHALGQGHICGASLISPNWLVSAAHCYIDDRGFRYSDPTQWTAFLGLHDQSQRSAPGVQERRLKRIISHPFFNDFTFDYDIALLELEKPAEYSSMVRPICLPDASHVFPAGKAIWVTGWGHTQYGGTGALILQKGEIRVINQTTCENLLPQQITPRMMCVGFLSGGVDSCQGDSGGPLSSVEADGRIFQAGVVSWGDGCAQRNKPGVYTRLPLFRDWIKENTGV
substance,measurement,setting,value
SFTI-1 (from UniProt Q4GWU5),Ki,[1],1 nM
same,Ki,[2],570 nM
